Laboratory results reported in patent US20050191293A1 (Bristol-Myers Squibb, published 2005).

T1: rhesus monkey IP-10 (rhesus monkey, UniProt Q8MIZ1 22-98)
T1 sequence: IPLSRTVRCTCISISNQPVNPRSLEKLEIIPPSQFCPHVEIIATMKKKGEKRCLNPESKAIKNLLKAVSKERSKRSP

T2: human ITAC (interferon-inducible T cell alpha chemoattractant) (human, UniProt O14625 22-94)
T2 sequence: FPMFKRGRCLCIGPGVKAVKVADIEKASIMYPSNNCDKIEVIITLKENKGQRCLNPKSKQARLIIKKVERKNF

T3: human MIG (monokine induced by gamma interferon) (human, UniProt Q07325 23-125)
T3 construct: Bought (PeproTech 300-26; R&D Systems for the migration assay)
T3 sequence: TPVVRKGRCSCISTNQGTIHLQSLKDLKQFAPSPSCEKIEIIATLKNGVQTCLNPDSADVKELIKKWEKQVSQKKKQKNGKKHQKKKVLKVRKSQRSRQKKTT

T4: mouse IP-10 (mouse, UniProt P17515 22-98)
T4 construct: Bought (PeproTech 250-16)
T4 sequence: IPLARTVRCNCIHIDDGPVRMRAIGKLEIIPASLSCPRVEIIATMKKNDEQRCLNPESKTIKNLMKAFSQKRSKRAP


Legend:
[1] = biological target: T5, human IP-10 (interferon gamma inducible protein 10) (human, UniProt P02778 22-98); assay: cell-based or functional assay
T5 sequence (P02778 other isoform, or with tags, fused parts or gaps limits assumed): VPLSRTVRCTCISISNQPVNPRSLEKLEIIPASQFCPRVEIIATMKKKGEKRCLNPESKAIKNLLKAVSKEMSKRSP

[2] = biological target: T5, human IP-10 (interferon gamma inducible …); assay: cell-based or functional assay; remark: listed apart in the source
[3] = biological target: T1, rhesus monkey IP-10; assay: cell-based or functional assay
[4] = biological target: T2, human ITAC (interferon-inducible T cell …); assay: SPR (Biacore), antigen on CM5 chip, 25 C
Procedure: (§1) The flow was then stopped and dissociation was monitored for 5 minutes. The association and dissociation curves were fit to a Langmuir binding model using BIAevaluation software (Biacore AB).

[5] = biological target: T5, human IP-10 (interferon gamma inducible …); assay: ELISA, plate coated with 1 ug/ml antigen
Procedure: (§2) The plates were washed with PBS/Tween and then incubated with a goat-anti-human IgG Fc polyclonal antibody conjugated with horseradish peroxidase (HRP) for 1 hour at room temperature. After washing, the plates were developed with ABTS substrate (Sigma, A-1888, 0.22 mg/ml) and analyzed by spectrophotometer at OD 415-495.

[6] = biological target: T1, rhesus monkey IP-10; assay: ELISA, plate coated with 1 ug/ml antigen
Procedure: as §2

[7] = biological target: T3, human MIG (monokine induced by gamma …); assay: ELISA, plate coated with 1 ug/ml antigen
Procedure: as §2

[8] = biological target: T4, mouse IP-10; assay: ELISA, plate coated with 1 ug/ml antigen
Procedure: as §2

[9] = biological target: T5, human IP-10 (interferon gamma inducible …); assay: SPR (Biacore), human IP-10 on CM5 chip, 25 C
Procedure: (§3) Binding was measured by flowing the antibody in HBS EP buffer (provided by Biacore AB) at concentrations from 33-267 nM at a flow rate of 40 μl/min. The antigen-antibody association kinetics was followed for 5 minutes and the dissociation kinetics was followed for 8 minutes. The association and dissociation curves were fit to a 1:1 Langmuir binding model using BIAevaluation software (Biacore AB). Data corresponding to the initial few dozen seconds for association and dissociation phases alone were considered for curve fitting to minimize the effect of avidity. The experiments were performed at both 25° C. and 37° C.

[10] = biological target: T5, human IP-10 (interferon gamma inducible …); assay: SPR (Biacore), human IP-10 on CM5 chip, 37 C
Procedure: as §3

[11] = biological target: T5, human IP-10 (interferon gamma inducible …); assay: SPR (Biacore), extension of dissociation curve, 25 C
Procedure: as §3
(§4) The values were determined by extension of the dissociation curves to get to the time required for the 50% reduction of the Y-axis of the dissociation sensogram.

[12] = biological target: T5, human IP-10 (interferon gamma inducible …); assay: SPR (Biacore), extension of dissociation curve, 37 C
Procedure: as §3, §4

[13] = biological target: T1, rhesus monkey IP-10; assay: SPR (Biacore), antigen on CM5 chip, antibody 133 nM, 25 C
Procedure: as §1

[14] = biological target: T5, human IP-10 (interferon gamma inducible …); assay: inhibition of 0.100 nM 125I-IP-10 binding to CXCR3-expressing 300.19 cells
Procedure: The cells were grown in RPMI media containing 10% FCS and G418 selection. Prior to use, the cells were washed twice with Hank's Balanced Salt Solution (HBSS) at 4° C. and adjusted to 4×10⁷ cells/ml. Glass fiber plates (Millipore MultiScreen®, Cat. #MAFBNOB50) were blocked with 200 μl of a 0.1% polyethyleneimine solution one day prior to the experiment. On the day of the study, the blocking buffer was aspirated by using a Millipore manifold. The plates were washed three times with 200 μl of binding buffer (50 mM HEPES, pH 7.2, 1 mM CaCl₂, 5 mM MgCl₂, 0.5% BSA). […] The plates were incubated on a plate shaker for 60 minutes at room temperature and washed three times with wash buffer (10 mM HEPES, pH 7.2, 0.5 M NaCl, 0.5% BSA) at a volume of 200 μl per wash. The plates were dried, 25 μl of scintillant was added and the plates were counted on a Wallac Microbeta Counter. Data were analyzed using Prism software and a KD was calculated.
Competition assays were run in a similar manner to the experiment described above. […] Lastly, 25 μl of cells at a density of 1×10⁶ cells per well were added and the plates were incubated on a plate shaker for 60 minutes at room temperature, washed and counted as described above. EC₅₀ values were calculated using Prism software. Kᵢ values (in nM) were determined using the formula: […]

[15] = biological target: T4, mouse IP-10; assay: SPR (Biacore), antigen on CM5 chip, antibody 133 nM, 25 C
Procedure: as §1

[16] = biological target: T3, human MIG (monokine induced by gamma …); assay: as above
Procedure: as §1

[17] = biological target: T5, human IP-10 (interferon gamma inducible …); assay: cell-based or functional assay; remark: listed apart in the source

| Binder | IC50 (nM) for 300.19 Cells: inhibition of IP-10-induced calcium flux in 300.19 cells transfected to express CXCR3 [1] [nM] | IC50 (nM) for HPBL: inhibition of IP-10-induced calcium flux in anti-CD3 activated human PBLs that express CXCR3 [1] [nM] | THP-1 IP-10 IC50: inhibition of migration of CXCR3-expressing 300.19 cells induced by native IP-10 in THP-1 supernatant, MIG blocked by anti-MIG [2] [µg/mL] | rhIP-10 IC50: inhibition of migration of CXCR3-expressing 300.19 cells induced by 100 ng/ml recombinant human IP-10 [2] [µg/mL] | rrmIP-10 IC50: inhibition of migration of CXCR3-expressing 300.19 cells induced by 100 ng/ml recombinant rhesus macaque IP-10 [3] [µg/mL] | binding result [4] | EC50 [5] [µg/mL] | EC50 [6] [µg/mL] | binding result [8] | Kd [9] [nM] | koff [9] [s⁻¹] | kon [9] [M⁻¹ s⁻¹] | Kd [10] [nM] | koff [10] [s⁻¹] | kon [10] [M⁻¹ s⁻¹] | Half-life (dissociation of half of the antibody-antigen complex) [11] [h] | Half-life (dissociation of half of the antibody-antigen complex) [12] [h] | Kd [13] [nM] | Ki [14] [nM] | EC50 [7] [µg/mL] | also measured |
| --- | --- | --- | --- | --- | --- | --- | --- | --- | --- | --- | --- | --- | --- | --- | --- | --- | --- | --- | --- | --- | --- |
| 1E1 human monoclonal antibody (antibody, V domains shown, Human IgG with kappa light chain from a hybridoma of transgenic mice) VH: QEQLVESGGNVVQPGRSLRLSCAASGFTFSTYGMHWVRQAPGKGLEWVAVIWYDGSDKYYADSVKDRFTVSKDNSKNTLYLQMNSLRAEDTAVYYCARNIAVADVAFDLWGQGTMVTVSS VL: not shown |  | 3.64 |  |  |  |  |  |  |  |  |  |  |  |  |  |  |  |  | 0.29 |  |  |
| 10A12 human monoclonal antibody (antibody, V domains shown, Human IgG with kappa light chain from a hybridoma of transgenic mice) VH: QVQLVESGGGVVQPGRSLRLSCAASGFTFSNCGMHWVRQAPGKGLEWVALIGFDGINEYYADSVKGRFTISRDNSKNTLYLQMNSLRAEDTAVYYCARDWPEGYYNGMDVWGQGTTVTVSS VL: not shown | 0.18 | 1.25 |  |  |  | no binding (tested: 133 nM) | 0.04 | 0.08 | no binding | 0.53 | 2.02e-05 | 38300 | 0.34 | 3.81e-05 | 111000 | 9.53 | 5.05 | 0.71 | 0.09 | 0.18 | Kd [16]: 161 nM |

Second part, led by results:

| IC50 (nM) for 300.19 Cells: inhibition of IP-10-induced calcium flux in 300.19 cells transfected to express CXCR3 [1] [nM] | IC50 (nM) for HPBL: inhibition of IP-10-induced calcium flux in anti-CD3 activated human PBLs that express CXCR3 [1] [nM] | THP-1 IP-10 IC50: inhibition of migration of CXCR3-expressing 300.19 cells induced by native IP-10 in THP-1 supernatant, MIG blocked by anti-MIG [2] [µg/mL] | rhIP-10 IC50: inhibition of migration of CXCR3-expressing 300.19 cells induced by 100 ng/ml recombinant human IP-10 [2] [µg/mL] | rrmIP-10 IC50: inhibition of migration of CXCR3-expressing 300.19 cells induced by 100 ng/ml recombinant rhesus macaque IP-10 [3] [µg/mL] | binding result [4] | EC50 [5] [µg/mL] | EC50 [6] [µg/mL] | binding result [8] | Kd [9] [nM] | koff [9] [s⁻¹] | kon [9] [M⁻¹ s⁻¹] | Kd [10] [nM] | koff [10] [s⁻¹] | kon [10] [M⁻¹ s⁻¹] | Half-life (dissociation of half of the antibody-antigen complex) [11] [h] | Half-life (dissociation of half of the antibody-antigen complex) [12] [h] | Kd [13] [nM] | Ki [14] [nM] | EC50 [7] [µg/mL] | Binder | also measured |
| --- | --- | --- | --- | --- | --- | --- | --- | --- | --- | --- | --- | --- | --- | --- | --- | --- | --- | --- | --- | --- | --- |
| 0.3 | 6.27 | 0.173 | 0.355 | 0.1 | no binding (tested: 133 nM) | 0.09 | 0.031 | no binding | 0.81 | 0.00019 | 233000 | 0.78 | 0.00027 | 347000 | 1.01 | 0.71 | 0.81 | 0.16 |  | 8F6 human monoclonal antibody (antibody, V domains shown, Human IgG with kappa light chain from a hybridoma of transgenic mice) VH: QVQLVDSGGGVVQPGRSLRLSCAASGFTFNTYGMHWVRQAPGKGLEWVAVISYDGIIKHYADSVKGRFTITRDNSKNMVHLQMNSLRAEDTAVYYCARDSSSWYVYFDYWGQGTLVTVSS VL: EIVLTQSPATLSLSPGERATLSCRASQSVSSYVAWYQQKPGQAPRLLIYDASNRATGIPARFSGSGSGTDFTLTISSLEPEDFAIYYCQQRSNSPPWTFGQGTKVEIK | binding result [7]: no binding |
| 0.77 | 8.15 |  |  |  | no binding (tested: 133 nM) |  |  |  | 0.02 | 4e-07 | 17000 | 0.016 | 8e-07 | 52700 |  |  | 4.4 | 0.41 |  | 7C10 human monoclonal antibody (antibody, V domains shown, Human IgG with kappa light chain from a hybridoma of transgenic mice) VH: QVQLVESGGGVVQPGRSLRLSCAASGFTFSNSGMHWVRQAPGKGLEWVAVIDYDGIIQYYADSVKGRFTISRDNSKNTLYLQINSLRAEDTAVYYCATERGTHYYGSGSFDYWGQGTLVTVSS VL: DIQMTQSPSSLSASVGDRVTITCRASQGISSWLAWYQQKPEKAPKSLIYAASSLQSGVPSRFSGSGSGTDFTLTISSLQPEDFATYYCQQYNSYPPTFGGGTKVEIK | Kd [15]: 464 nM |
| 0.08 | 2.31 | 0.211 | 0.115 | 15.1 | no binding (tested: 133 nM) | 0.0049 | 0.0156 | no binding | 0.88 | 3.24e-05 | 36800 | 0.49 | 4.43e-05 | 91000 | 5.94 | 4.34 | 1.21 | 0.06 | 0.38 | 10A12S (10A12 with cysteine 32 of VH CDR1 mutated to serine) (antibody, V domains shown) VH: QVQLVESGGGVVQPGRSLRLSCAASGFTFSNSGMHWVRQAPGKGLEWVALIGFDGINEYYADSVKGRFTISRDNSKNTLYLQMNSLRAEDTAVYYCARDWPEGYYNGMDVWGQGTTVTVSS VL: not shown | Expt. 1 IC50: inhibition of MS-CSF induced migration of CXCR3-expressing 300.19 cells, MIG neutralized by anti-MIG [17]: 0.562 µg/mL; Expt. 2 IC50: inhibition of MS-CSF induced migration of CXCR3-expressing 300.19 cells, MIG neutralized by anti-MIG [17]: 0.577 µg/mL; Kd [16]: 722 nM |
